Values of other authors in article PMC9256694.

Target: IL-2 receptor beta/gamma common chain (Homo sapiens) (UniProt P14784)
Sequence of UniProt P14784 (P14784 27-240, chain 1 of 2): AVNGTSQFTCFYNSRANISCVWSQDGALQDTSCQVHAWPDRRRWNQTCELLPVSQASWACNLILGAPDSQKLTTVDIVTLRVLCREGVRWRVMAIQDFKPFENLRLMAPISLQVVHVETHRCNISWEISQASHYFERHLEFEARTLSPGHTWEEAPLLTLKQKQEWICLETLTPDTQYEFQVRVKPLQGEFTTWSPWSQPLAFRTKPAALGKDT
Sequence of UniProt P14784 (P31785 23-262, chain 2 of 2, further chain): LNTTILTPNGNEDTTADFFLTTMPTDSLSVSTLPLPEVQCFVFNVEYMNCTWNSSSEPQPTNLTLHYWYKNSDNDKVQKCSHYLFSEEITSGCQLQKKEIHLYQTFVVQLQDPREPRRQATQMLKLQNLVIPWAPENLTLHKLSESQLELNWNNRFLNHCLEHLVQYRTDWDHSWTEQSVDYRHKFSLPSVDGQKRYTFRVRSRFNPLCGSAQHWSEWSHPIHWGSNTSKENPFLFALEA

Sequence of IL-2 (P60568 21-153): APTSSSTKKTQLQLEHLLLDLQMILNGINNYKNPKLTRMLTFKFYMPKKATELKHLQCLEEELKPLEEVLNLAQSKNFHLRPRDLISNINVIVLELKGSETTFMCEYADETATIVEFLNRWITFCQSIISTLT

IL-2 (from UniProt P60568)
Kd: 1 nM
